From publication PMC6813330

Molecular target: IbpS (iron-binding protein secreted), translocated region of D. dadantii IbpS (residues 28-372) (Dickeya dadantii 3937)
Experiment: SEC-MALS; Superdex S200 5/150 GL increase; 25 µl IbpS at 10 mg/ml in 50 mM Tris-Cl pH 7.0, 100 mM NaCl

IbpS (iron-binding protein secreted), translocated region of D. dadantii IbpS (residues 28-372) (natural protein)
stoichiometry N: 2
